B1: NP_006221.1 (parent)
chain: CQPISFSGFGAEDDDLGGLGLGP

Variants of: B1
Test: protein stability index of a GFP-peptide fusion (GPS, HEK-293T) (PSI 1-6); higher = more stable
Conditions: c terminus: native
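Note: lentivirally expressed fusion library, cells FACS-sorted into six equal-sized GFP/DsRed ratio bins, PSI computed from sequencing read fractions per bin weighted by bin number.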

Protein stability index: each site, then its substitutions
L19: D 2.39 | S 2.91 | Q 2.39 | N 2.54 | I 2.13 | C 2.52 | W 2.78 | F 2.51 | T 3.02 | Y 2.31 | P 2.7 | M 2.29 | K 1.99 | G 2.87 | A 2.72 | E 2.49
G8: K 2.48 | T 2.34 | Q 1.87 | F 2.39 | W 2.19 | V 2.16 | P 3.55 | M 2.23 | D 2.05 | N 2.24 | R 2.52
S7: A 1.89 | Q 2.48 | L 2.43 | P 4.14 | Y 2.6 | F 2.48 | D 3.66 | R 2.56 | M 2.47 | T 2.19 | I 2.13 | G 2.87 | E 2.72 | K 2.77
G17: I 1.93 | E 2.36 | Y 2.15 | P 2.05 | W 2.46 | V 1.99 | F 2.08 | M 1.7 | K 2.08 | S 2.26 | C 2.2 | H 2.17 | A 2.16 | T 2.1 | R 1.52 | Q 2.12
L21: V 3.37 | Y 4.14 | K 3.95 | R 2.74 | P 5.09 | N 4.89 | D 5.19 | M 3.33 | S 5.12 | F 4 | G 4.98 | T 3.94 | E 5.34 | I 3.46 | W 4.11
L16: A 2.59 | P 2.15 | D 2.22 | K 2.25 | S 2.28 | W 2.25 | G 2.21 | E 1.85 | M 2.45 | C 2.34 | H 2.26 | Y 2.27 | V 2.36 | Q 2.27
D13: A 2.46 | P 2.08 | F 2.54 | E 2.22 | V 2.28 | W 2.31 | R 2.04 | L 2.27 | S 2.41 | M 2.24 | C 2.42
F6: S 3.93 | N 4.41 | D 4.57 | V 3.43 | Y 2.52 | C 3.41 | W 2.22 | T 3.93 | K 4.18 | R 3.86 | M 3.53 | P 4.41 | E 4.72 | G 4.16 | I 3.63 | H 3.48 | A 3.88
Q2: N 2.31 | E 2.43 | L 2.51 | T 2.16 | K 2.22 | F 1.99 | M 2.16 | R 2.17 | P 2.19 | I 2.16 | V 1.98 | C 2.14 | H 2.26 | G 2.1
P23: H 3.99 | S 4.5 | T 3.8 | V 3.45 | W 2.73 | Y 2.25 | A 2.17 | G 2.25 | L 3.57 | I 2.95 | E 4.96 | D 5.01 | K 4.66 | R 2.95 | M 2.91
G10: T 1.91 | D 2.51 | Y 1.94 | V 2.2 | H 1.99 | P 1.83 | K 1.96 | I 2.08 | W 1.9 | N 2.04 | Q 2.3 | S 1.95 | M 2.29 | E 2.08
A11: G 2.36 | V 2.33 | P 2.17 | I 2.65 | C 2.08 | L 1.81 | D 2.37 | W 2.06 | K 2.09 | F 1.95 | N 2.09 | Y 2.06 | H 2.37
G18: V 2.17 | Q 2 | A 2.13 | R 2.31 | M 1.99 | W 2.57 | D 2.19 | K 1.93 | L 2.24 | C 2.35 | Y 2.18 | I 2.18 | P 1.99 | S 2.24 | N 2.16 | H 1.99 | F 2.24
F9: A 2.58 | D 3.32 | P 3.23 | W 2.53 | N 2.87 | M 2.41 | H 2.42 | Q 2.54 | V 2.25 | R 2.04 | G 3.01 | Y 2.01 | T 2.7 | I 2.35 | S 2.56 | K 2.4 | C 2.36 | E 2.98
G22: M 2.32 | E 2.13 | A 2.29 | H 2.8 | N 3.35 | S 2.1 | W 2.46 | L 2.46 | P 4.39 | R 3.32 | F 2.4 | Q 2.27 | K 4.15 | V 2.11 | D 2.15 | C 2.25 | I 2.37
P3: R 2.06 | D 2.2 | W 1.94 | F 1.94 | Y 2.01 | K 2.05 | A 2.19 | I 2.29 | Q 2.42 | S 2.37 | E 2.46 | N 2.2
D15: I 2.4 | G 2.57 | P 2.38 | K 2.2 | T 2.52 | W 2.44 | L 2.41 | Q 2.67 | E 2.15 | V 2.29 | C 2.18 | A 2.28 | F 2.32 | R 2.13 | H 2.08 | Y 2.35
S5: G 2.36 | I 2.75 | P 2.42 | A 2.77 | Q 2.24 | W 2.58 | M 2.46 | V 2.54 | N 2.4 | L 2.25 | R 2.14 | Y 2.25 | K 2.39 | C 2.16 | E 2.99
G20: D 2.58 | C 2.51 | W 3.19 | F 3.81 | L 3.54 | K 4.31 | R 3.93 | T 3.68 | H 2.93 | Q 2.69 | I 3.2 | P 3.11 | Y 2.83 | M 2.77 | V 3.37
D14: N 2.33 | L 2.44 | T 2.18 | P 2.19 | V 2.12 | A 2.23 | I 2.21 | W 2.48 | F 2.51 | K 2.46 | Q 2.11 | S 2.05 | R 1.99
E12: T 2.06 | G 2.5 | K 2.17 | F 2.17 | I 1.94 | D 2.22 | S 2.44 | A 2.32 | P 2.07 | V 2.3 | N 2.32 | H 2.48
I4: R 2.08 | H 2.25 | Y 2.09 | S 2.31 | K 2.05 | F 2.12 | P 2.2 | C 2.43 | A 2.17 | T 2.47 | V 2.54 | G 2.29 | Q 2.15 | E 2.41
C1: H 2.17 | W 1.91 | V 2.27 | N 2.28 | P 2.33 | R 2.31 | D 2.57 | Y 2.18 | A 2.11 | I 2.12 | S 2.17 | T 2.14 | Q 2.37 | M 2.34 | K 2.06

From the supplement of paper PMC10567573
